In paper PMC9489729 (2022) one finds Kd data, which are given here for 1 molecule.

By Kd is commonly meant the constant that tells how readily two partners part at equilibrium.

Assay [1] concerns the target T1, C-terminally His-tagged RavA (E. coli, UniProt P31473 1-498). Description: BLI; + ATP, KD2 second site (2:1 heterogeneous ligand model), pH 7.5. (BLI is a label-free optical method that tracks binding on a fibre tip over time.)
Assay [2] concerns the target T1, C-terminally His-tagged RavA. Put plainly: BLI; no nucleotide, pH 7.5.
Assay [3] shares this target. Description: BLI; + ATP, KD1 (2:1 heterogeneous ligand model), pH 7.5.
For assay [4] the target is unchanged. Description: BLI; + ADP, pH 7.5.

T1 sequence (P31473 whole entry): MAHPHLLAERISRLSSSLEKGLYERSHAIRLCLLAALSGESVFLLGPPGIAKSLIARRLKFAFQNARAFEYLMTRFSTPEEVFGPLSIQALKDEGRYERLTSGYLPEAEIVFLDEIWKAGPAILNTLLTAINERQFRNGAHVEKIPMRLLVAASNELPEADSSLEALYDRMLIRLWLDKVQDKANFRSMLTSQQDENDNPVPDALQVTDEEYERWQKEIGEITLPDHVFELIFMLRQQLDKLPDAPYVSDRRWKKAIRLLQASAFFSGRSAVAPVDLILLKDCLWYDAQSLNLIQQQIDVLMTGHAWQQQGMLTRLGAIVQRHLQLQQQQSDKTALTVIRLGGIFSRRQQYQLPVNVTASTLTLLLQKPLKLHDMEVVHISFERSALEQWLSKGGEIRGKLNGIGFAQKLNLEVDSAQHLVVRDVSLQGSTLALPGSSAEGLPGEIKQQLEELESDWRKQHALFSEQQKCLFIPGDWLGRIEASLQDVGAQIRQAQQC

B1: His-NTV-AviTag (domain or fragment)
chain: MLTLDTLNVMLAVSEEGLIEEMIIALLASPQLAVFFEKFPRLKAAITDDVPRWREALRSRLKDARVPPELTEEVMCYQQSQLLSTPQFIVQLPQILDLLHRLNSPWAEQARQLVDANSTITSALHTLFLQRWRLSLIVQATTLNQQLLEEEREQLLSEVQERMTLSGQLEPILADNNTAAGRLWDMSAGQLKRGDYQLIVKYGEFLNEQPELKRLAEQLGRSREAKSIPRNDAQMETFRTMVREPATVPEQVDGLQQSDDILRLLPPELATLGITELEYEFYRRLVEKQLLTYRLHGESWREKVIERPVVHKDYDEQPR
modifications: biotinylated for the BLI binding studies (50 μM D-biotin added to the LB medium during expression)
For the molecule B1, the equilibrium dissociation constant (Kd) in assay [1] was determined as 4.8 µM; in assay [2], 33.3 µM; in assay [3], 13.1 µM; in assay [4] it was 12.4 µM.
